Experimental data from patent US20260242417A1.

Target: Patched

Recombinant mouse Sonic HedgeHog (mShh) (from UniProt Q62226) (ligand)
Mean luminescence intensity (Gli-luciferase reporter, NIH3T3 cells) (luminescence intensity): 6460
